Laboratory results reported in patent US20230167192A1 (SUZHOU ZELGEN BIOPHARMACEUTICALS, published 2023).

Key:
[1] = target: monkey CD47 on monkey erythrocytes (monkey); test: flow cytometry on monkey erythrocytes
[2] = target: T1, human CD47 on cells (human, UniProt Q08722 19-323); test: flow cytometry, inhibition of SIRPα-mFc binding to CHO-CD47 cells
T1 construct: whole, on cells; also called CHO-CD47 cells; MKN-45

[3] = target: T2, human CD47 protein (human, UniProt Q08722 19-139, limits assumed); test: SPR (Biacore T200), antibody captured on protein A chip, CD47 protein in solution
Experimental: The affinity of antigen-antibody binding was measured by SPR (surface plasma resonance). […] During the dissociation phase, elution was continued for 360 s with HBS-EP buffer. The binding of CD47 to the antibody on the sensor chip was quantitatively determined using Biacore T200 (GE Healthcare).

[4] = target: T1, human CD47 on cells; test: flow cytometry on A2780 cells
Experimental: (§1) First, the inventors verified the expression of CD47 in the above 3 cell lines using flow cytometry. Serially diluted solutions of anti-human CD47 detection antibody (eBioscience, 17-0479-42) and APC isotype (eBioscience, 17-4714-41), anti-huIgG 633 (life technologies, A21091) were prepared with PBS to formulate 2× working solutions at final concentrations. The three tumor cells were collected, washed with PBS once, counted, and diluted to 4×10⁶/mL cell suspension. For each cell line, 50 μL of the antibody working solution was added into 50 μL of cell suspension, and the mixture was incubated at 4° C. in the dark for 30 min. After washing twice with PBS, a corresponding fluorescence-labeled secondary antibody (anti-huIgG 633) was added, and the mixture was incubated for 30 min at 4° C. in the dark, washed twice with PBS, and suspended with 400 μL of FACS buffer. The binding of the antibodies to the cells was detected by a flow cytometer.
(§2) The method is the same as above.

[5] = target: T1, human CD47 on cells; test: flow cytometry on MKN-45 cells
Experimental: as §1, §2

[6] = target: T1, human CD47 on cells; test: flow cytometry on human erythrocytes; human erythrocytes, flow cytometry
Experimental: Erythrocytes were first isolated from the peripheral blood of volunteers and suspended in physiological saline to obtain an erythrocyte suspension with a concentration of 2%. Serially diluted antibody solutions were prepared with PBS to formulate 2× working solutions at final concentrations. 50 μL of the antibody working solution was added into 50 μL of erythrocyte suspension, and the mixture was incubated at 4° C. in the dark for 60 min. After washing twice with PBS, a corresponding fluorescence-labeled secondary antibody was added, and the mixture was incubated for 30 min at 4° C. in the dark, washed twice with PBS, and suspended with 400 μL of FACS buffer. The binding of the antibodies to the erythrocytes was detected by a flow cytometer. For erythrocyte agglutination detection, 50 μL of the antibody working solution was also added into 50 μL of erythrocyte suspension. The mixture was placed on a 96-well round bottom plate, let stand at room temperature for 2 h, observed and photographed.

[7] = target: T2, human CD47 protein; test: ELISA, plate coated with human CD47 protein
Experimental: The next day, the plate was washed 3 times with 300 μL of PBST (Tween 20: 0.5‰), then blocked with 5% BSA/PBS at 100 μL/well for 2 h, and shaken at room temperature. The plate was then washed with 300 μL of PBST 3 times. The antibody samples prepared with PBS were serially diluted, added to a 96-well plate at 100 μL/well and shaken for 1 h at room temperature. The plate was then washed with 300 μL of PBST 3 times. A secondary goat anti-mouse IgG HRP or goat anti-human IgG HRP solution was prepared, added to a 96-well plate at 100 μL/well and shaken for 1 h at room temperature. The plate was then washed with 300 μL of PBST 4 times. TMB was added at 100 μL/well for 20 min of chromogenesis. The chromogenesis was terminated by adding 0.6 N H₂SO₄ at 100 μL/well and the OD_{450 nm} was detected.

[8] = target: T1, human CD47 on cells; test: flow cytometry on SW620 cells
Experimental: as §1, §2

[9] = target: monkey CD47 on monkey erythrocytes (monkey, UniProt A0A2K5X4H8 19-305); test: flow cytometry on monkey erythrocytes
Chain of monkey CD47 on monkey erythrocytes (A0A2K5X4H8 entry or part of it limits assumed): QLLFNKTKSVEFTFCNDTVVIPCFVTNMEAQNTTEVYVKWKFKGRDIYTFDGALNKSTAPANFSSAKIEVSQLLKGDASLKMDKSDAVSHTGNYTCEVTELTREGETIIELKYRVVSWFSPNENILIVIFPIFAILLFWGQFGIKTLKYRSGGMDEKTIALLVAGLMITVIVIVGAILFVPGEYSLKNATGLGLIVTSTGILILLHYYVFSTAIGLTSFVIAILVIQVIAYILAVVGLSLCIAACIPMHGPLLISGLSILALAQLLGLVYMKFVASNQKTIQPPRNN

Chain of monkey CD47 on monkey erythrocytes (monkey) (A0A2K5 entry or part of it limits assumed): as the sequence (A0A2K5X4H8 entry or part of it limits assumed) above

Row | Molecule | EC50 [1] [µg/mL] | plateau [1] | IC50 [2] [µg/mL] | Kd [3] [nM] | koff [3] [s⁻¹] | kon [3] [M⁻¹ s⁻¹] | EC50 [4] [µg/mL] | EC50 [5] [µg/mL] | EC50 [6] [µg/mL] | EC50 [7] [µg/mL] | EC50 [8] [µg/mL] | EC50 [9] [µg/mL]
1 | positive control antibody Hu5F9 | 0.586 | 392 |  |  |  |  |  |  |  |  |  | 
2 | humanized antibody UM03-C4 (antibody, human IgG4 S228P, kappa, V domains shown, expressed in HEK293 cells) VH: QVQLVESGGGVVQPGGSLRLSCAASGFTFSDYGMAWIRQAPGKGPEWIAFITNLASSIYYADTVTGRFTISRDNSKNTLYLQMNSLRAEDTAVYYCARAGDYRSFPYWGQGTLVTVSA VL: EIVLTQSPATLSLSPGERATLSCSASSSVNYVNWYQQKPGQAPRILIYGISNLASGVPARFSGSGSGTDFTLTISSLEPEDFAVYYCQQRSTFPPYTFGQGTKLEIKR |  |  | 2.4 | 0.19 | 0.000193 | 1.02e+06 | 0.119 | 0.354 | 0.93 | 0.169 | 0.126 | 
3 | human-mouse chimeric antibody UM03-L4 (antibody, human IgG4 S228P, kappa, V domains shown, expressed in HEK293 cells) VH: EVKLVESGGDLVQPGGSRKLSCAASGFTFSDYGMAWIRQAPGKGPEWIAFITNLASSIYYADTVTGRFTISRENAKNTLYLEMSSLRSEDTAMYYCARAGDYRSFPYWGQGTPVTVSA VL: EILLTQSPAIIAASPGEKVTITCSASSSVNYVNWYQQKPGSSPKIWIYGISNLASGVPARFSGSGSGTSFSFTINSMEAEDVATYYCQQRSTFPPYTFGGGTKLEIKR |  |  | 3.38 |  |  |  | 0.142 | 0.381 | 1.21 | 0.25 | 0.216 | 0.907
